The target in data set [1] is Thermococcus sp. DNA polymerase (R671S/K677S/K712S)/N210D R671S,K677S,K712S,N210D (Thermococcus sp.) (UniProt Q56366). The data set can be described thus: EMSA. The settings on record: EMSA as for Taq, 1x TAE with 2 mM EDTA. In general terms: In EMSA bound probe runs differently from free probe, usually more slowly.
The target of data set [2] is T1, Thermococcus sp. DNA polymerase R671S/K677S/K712S R671S,K677S,K712S (Thermococcus sp.) (UniProt Q56366).
T1 sequence: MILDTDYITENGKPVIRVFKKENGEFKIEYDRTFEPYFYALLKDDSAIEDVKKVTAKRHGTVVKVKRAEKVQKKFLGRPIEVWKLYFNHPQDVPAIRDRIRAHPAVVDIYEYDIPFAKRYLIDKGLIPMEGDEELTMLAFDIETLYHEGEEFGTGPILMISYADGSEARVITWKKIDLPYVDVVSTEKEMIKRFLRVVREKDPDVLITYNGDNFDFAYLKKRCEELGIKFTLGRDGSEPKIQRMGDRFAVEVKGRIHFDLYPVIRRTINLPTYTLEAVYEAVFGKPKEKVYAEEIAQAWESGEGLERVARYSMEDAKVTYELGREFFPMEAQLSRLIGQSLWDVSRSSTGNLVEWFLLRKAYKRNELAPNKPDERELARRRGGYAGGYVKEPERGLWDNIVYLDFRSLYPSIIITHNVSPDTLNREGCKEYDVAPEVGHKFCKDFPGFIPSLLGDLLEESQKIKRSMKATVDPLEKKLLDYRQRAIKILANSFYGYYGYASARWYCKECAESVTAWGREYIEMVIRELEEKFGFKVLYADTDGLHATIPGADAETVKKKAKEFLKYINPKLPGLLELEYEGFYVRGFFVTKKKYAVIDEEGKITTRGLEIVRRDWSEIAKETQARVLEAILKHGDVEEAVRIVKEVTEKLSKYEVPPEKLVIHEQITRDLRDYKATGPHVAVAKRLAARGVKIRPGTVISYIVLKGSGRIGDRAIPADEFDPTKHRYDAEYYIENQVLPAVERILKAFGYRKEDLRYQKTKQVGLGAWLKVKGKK
In words: EMSA. Conditions: EMSA as for Taq, 1x TAE with 2 mM EDTA.

Data set [3] deals with T2, Thermococcus sp. DNA polymerase (Thermococcus sp.) (UniProt Q56366).
T2 sequence: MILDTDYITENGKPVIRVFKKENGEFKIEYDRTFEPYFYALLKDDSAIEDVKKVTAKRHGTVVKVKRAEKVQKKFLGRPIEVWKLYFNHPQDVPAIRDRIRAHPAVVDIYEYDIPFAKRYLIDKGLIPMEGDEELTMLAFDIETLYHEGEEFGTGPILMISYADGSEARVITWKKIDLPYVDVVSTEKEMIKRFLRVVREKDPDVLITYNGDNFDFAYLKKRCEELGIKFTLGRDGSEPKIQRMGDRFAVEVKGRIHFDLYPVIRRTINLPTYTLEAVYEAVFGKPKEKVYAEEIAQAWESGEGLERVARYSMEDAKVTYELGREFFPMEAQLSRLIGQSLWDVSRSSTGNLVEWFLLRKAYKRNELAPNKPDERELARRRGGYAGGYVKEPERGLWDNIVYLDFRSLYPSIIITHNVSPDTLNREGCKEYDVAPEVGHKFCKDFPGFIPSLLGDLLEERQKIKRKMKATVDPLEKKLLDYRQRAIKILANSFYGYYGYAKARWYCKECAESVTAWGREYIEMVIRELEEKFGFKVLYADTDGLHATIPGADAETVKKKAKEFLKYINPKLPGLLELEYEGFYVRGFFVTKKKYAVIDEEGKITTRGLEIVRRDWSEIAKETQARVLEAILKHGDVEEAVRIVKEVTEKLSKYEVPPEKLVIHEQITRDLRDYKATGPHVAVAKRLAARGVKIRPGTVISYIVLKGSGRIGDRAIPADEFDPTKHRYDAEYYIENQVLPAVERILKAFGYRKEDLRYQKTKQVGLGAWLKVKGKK
In words: EMSA. Conditions: EMSA as for Taq, 1x TAE with 2 mM EDTA.

Data set [4] addresses Thermococcus sp. DNA polymerase R671E/K677E/K712E R671E,K677E,K712E (Thermococcus sp.) (UniProt Q56366). In words: EMSA. Conditions: EMSA as for Taq, 1x TAE with 2 mM EDTA.
In data set [5] the target is Thermococcus sp. DNA polymerase (R671E/K677E/K712E)/N210D R671E,K677E,K712E,N210D (Thermococcus sp.) (UniProt Q56366). In words: EMSA. Conditions: EMSA as for Taq, 1x TAE with 2 mM EDTA.
In data set [6] the target is Thermococcus sp. DNA polymerase R671E/K677E R671E,K677E (Thermococcus sp.) (UniProt Q56366). The data set can be described thus: EMSA. Conditions: EMSA as for Taq, 1x TAE with 2 mM EDTA.
Data set [7] concerns the target Taq DNA polymerase (R536C/K540C/D610A/H784C)/(Y81F/G187A) (UniProt P19821 P19821:1-832, R536C,K540C,D610A,H784C,Y81F,G187A). The data set can be described thus: EMSA; 1x TAE with 2 mM EDTA, pH 8.3; above highest tested 1000 nM. Conditions: tags: Fermentas. On the procedure: (§1) Affinity of Taq DNA polymerase (FIG. 7A) and its mutants (FIG. 7B-J) for double-stranded DNA (template-primer duplex) was analyzed by electrophoretic mobility shift assays (EMSA) as previously described (Lagunavicius et al. (2003) J. Mol. Biol. 326: 1051-1064) except that 1 nM of 24*/44 nt duplex (* indicates ³³P label in 5′-terminus of 24 nt oligonucleotide) formed by annealing of 5′-[…]-3′ (24 nt) and 5′-[…]-3′ (44 nt) and 0, 1, 2, 5, 10, 20, 50, 100, 200, 500, 1000 nM of the proteins were mixed in 1×TAE buffer (40 mM Tris-acetate, pH8.3 at 25° C.; 2 mM EDTA) supplemented with 10% glycerol and electrophoresis was performed in 12% PAAG. The gels were analyzed by Cyclone Storage Phosphor System and OptiQuant™ Image Analysis Software (Packard Instruments) and GraphPad Prism version 4.03 Software (GraphPad Software, Inc.) (FIG. 7).
(§2) Affinity of Taq DNA polymerase (FIG. 8A) and its mutants (FIG. 8B-G) for single-stranded DNA (primer) was analyzed as described in Example 7, except that 5′-labeled 24 nt oligonucleotide (5′-[…]) was used instead of 24*/44 nt duplex (FIG. 8).

Data set [8] has as its target Taq DNA polymerase (I532T/R536C/K540C/H784C)/(R25S/Y81F/G187A) (UniProt P19821 P19821:1-832, I532T,R536C,K540C,H784C,R25S,Y81F,G187A). The description is as above. Conditions: tags: Fermentas. On the procedure:
as §1, §2

Data set [9] addresses T3, Taq DNA polymerase I532T/R536C/K540C/H784C (UniProt P19821 P19821:1-832, I532T,R536C,K540C,H784C). The data set can be described thus: EMSA; 1x TAE with 2 mM EDTA, pH 8.3, 10% glycerol. Conditions: tags: Fermentas; label: 5'-33P on 24 nt strand; 24 nt primer annealed to 44 nt template, 20 nt 5' template overhang. As to the method: as §1, §2
For data set [10], the target named is Taq DNA polymerase (K540C/H784C)/Y81F (UniProt P19821 P19821:1-832, K540C,H784C,Y81F). The data set can be described thus: EMSA; 1x TAE with 2 mM EDTA, pH 8.3, 10% glycerol. Conditions: tags: Fermentas. On the procedure: as §1, §2
Data set [11] deals with T4, Taq DNA polymerase R536C/K540C/D610A/H784C (UniProt P19821 P19821:1-832, R536C,K540C,D610A,H784C). The data set can be described thus: EMSA; 1x TAE with 2 mM EDTA, pH 8.3, 10% glycerol. Conditions: tags: Fermentas; label: 5'-33P on 24 nt strand; 24 nt primer annealed to 44 nt template, 20 nt 5' template overhang. On the procedure: as §1, §2
The target of data set [12] is Taq DNA polymerase K540C/H784C (UniProt P19821 P19821:1-832, K540C,H784C). The data set can be described thus: EMSA; 1x TAE with 2 mM EDTA, pH 8.3, 10% glycerol. Conditions: tags: Fermentas. On the procedure:
as §1, §2

The target in data set [13] is Taq DNA polymerase E491G/R536C/K540C/H784C (UniProt P19821 P19821:1-832, E491G,R536C,K540C,H784C). In words: EMSA; 1x TAE with 2 mM EDTA, pH 8.3, 10% glycerol. Conditions: tags: Fermentas. As to the method: as §1, §2
Data set [14] concerns the target T5, Taq DNA polymerase N485S/R536C/K540C/H784C (UniProt P19821 P19821:1-832, N485S,R536C,K540C,H784C). In words: EMSA; 1x TAE with 2 mM EDTA, pH 8.3, 10% glycerol. The settings on record: tags: Fermentas; label: 5'-33P on 24 nt strand; 24 nt primer annealed to 44 nt template, 20 nt 5' template overhang. As to the method: as §1, §2
The target of data set [15] is T6, Taq DNA polymerase (K540C/H784C)/R25S (UniProt P19821 P19821:1-832, K540C,H784C,R25S). In words: EMSA; 1x TAE with 2 mM EDTA, pH 8.3, 10% glycerol. Conditions: tags: Fermentas; label: 5'-33P on 24 nt strand; 24 nt primer annealed to 44 nt template, 20 nt 5' template overhang. On the procedure: as §1, §2
The target in data set [16] is T3, Taq DNA polymerase …. In words: EMSA; 1x TAE with 2 mM EDTA, pH 8.3; above highest tested 1000 nM. The settings on record: tags: Fermentas; label: 5'-33P. On the procedure:
as §1, §2

Data set [17] deals with T4, Taq DNA polymerase …. The description is as above. The settings on record: tags: Fermentas; label: 5'-33P. On the procedure: as §1, §2
Data set [18] concerns the target T6, Taq DNA polymerase (K540C/H784C)/R25S. Described as above. Conditions: tags: Fermentas; label: 5'-33P. On the procedure:
as §1, §2

The next data set concerns the target Taq DNA polymerase (UniProt P19821 P19821:1-832). In words: EMSA; 1x TAE with 2 mM EDTA, pH 8.3, 10% glycerol. The settings on record: tags: recombinant, Fermentas; label: 5'-33P. On the procedure: as §1, §2
In data set [19] the target is T5, Taq DNA polymerase …. The data set can be described thus: EMSA; 1x TAE with 2 mM EDTA, pH 8.3; tighter than WT. Conditions: tags: Fermentas; label: 5'-33P.
[20] abbreviates: label: 5'-33P on 24 nt strand, 24 nt primer annealed to 44 nt template, 20 nt 5' template overhang.

Chain of Taq DNA polymerase (I532T/R536C/K540C/H784C)/(R25S/Y81F/G187A) (P19821 whole entry R25S/Y81F/G187A/I532T/R536C/K540C/H784C, one chain of several): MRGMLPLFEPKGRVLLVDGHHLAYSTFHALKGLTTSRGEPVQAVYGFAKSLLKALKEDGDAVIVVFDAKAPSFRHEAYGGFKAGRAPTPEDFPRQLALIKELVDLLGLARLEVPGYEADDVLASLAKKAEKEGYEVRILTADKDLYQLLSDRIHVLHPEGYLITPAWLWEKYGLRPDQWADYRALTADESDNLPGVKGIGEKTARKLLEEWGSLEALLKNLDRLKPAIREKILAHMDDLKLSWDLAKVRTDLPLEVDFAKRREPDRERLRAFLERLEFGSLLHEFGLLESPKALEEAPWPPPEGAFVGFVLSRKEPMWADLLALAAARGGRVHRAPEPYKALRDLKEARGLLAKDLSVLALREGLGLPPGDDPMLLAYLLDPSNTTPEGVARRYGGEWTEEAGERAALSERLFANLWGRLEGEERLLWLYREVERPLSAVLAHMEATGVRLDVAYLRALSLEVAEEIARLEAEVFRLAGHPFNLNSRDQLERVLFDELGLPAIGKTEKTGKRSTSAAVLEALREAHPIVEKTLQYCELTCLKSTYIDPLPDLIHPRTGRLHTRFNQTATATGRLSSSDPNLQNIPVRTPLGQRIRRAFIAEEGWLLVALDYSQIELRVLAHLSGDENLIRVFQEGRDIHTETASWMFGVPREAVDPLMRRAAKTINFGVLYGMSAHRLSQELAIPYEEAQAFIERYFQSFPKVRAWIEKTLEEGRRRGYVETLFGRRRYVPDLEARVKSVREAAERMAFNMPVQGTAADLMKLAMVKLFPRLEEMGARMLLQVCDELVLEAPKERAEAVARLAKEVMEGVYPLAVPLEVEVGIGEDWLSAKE
Chain of Taq DNA polymerase K540C/H784C (P19821 whole entry K540C/H784C, one chain of several): as the sequence (P19821 whole entry R25S/Y81F/G187A/I532T/R536C/K540C/H784C, one chain of several) above, with S25R, F81Y, A187G, T532I, C536R counted along it
T3 sequence (P19821 whole entry I532T/R536C/K540C/H784C, one chain of several): as the sequence (P19821 whole entry R25S/Y81F/G187A/I532T/R536C/K540C/H784C, one chain of several) above, with S25R, F81Y, A187G counted along it
Chain of Taq DNA polymerase (R536C/K540C/D610A/H784C)/(Y81F/G187A) (P19821 whole entry Y81F/G187A/R536C/K540C/D610A/H784C, one chain of several): as the sequence (P19821 whole entry R25S/Y81F/G187A/I532T/R536C/K540C/H784C, one chain of several) above, with S25R, T532I, D610A counted along it
T5 sequence (P19821 whole entry N485S/R536C/K540C/H784C, one chain of several): as the sequence (P19821 whole entry R25S/Y81F/G187A/I532T/R536C/K540C/H784C, one chain of several) above, with S25R, F81Y, A187G, N485S, T532I counted along it
T4 sequence (P19821 whole entry R536C/K540C/D610A/H784C, one chain of several): as the sequence (P19821 whole entry R25S/Y81F/G187A/I532T/R536C/K540C/H784C, one chain of several) above, with S25R, F81Y, A187G, T532I, D610A counted along it
Chain of Taq DNA polymerase E491G/R536C/K540C/H784C (P19821 whole entry E491G/R536C/K540C/H784C, one chain of several): as the sequence (P19821 whole entry R25S/Y81F/G187A/I532T/R536C/K540C/H784C, one chain of several) above, with S25R, F81Y, A187G, E491G, T532I counted along it
T6 sequence (P19821 whole entry R25S/K540C/H784C, one chain of several): as the sequence (P19821 whole entry R25S/Y81F/G187A/I532T/R536C/K540C/H784C, one chain of several) above, with F81Y, A187G, T532I, C536R counted along it
Chain of Taq DNA polymerase (K540C/H784C)/Y81F (P19821 whole entry Y81F/K540C/H784C, one chain of several): as the sequence (P19821 whole entry R25S/Y81F/G187A/I532T/R536C/K540C/H784C, one chain of several) above, with S25R, A187G, T532I, C536R counted along it
Chain of Taq DNA polymerase (P19821 whole entry, one chain of several): as the sequence (P19821 whole entry R25S/Y81F/G187A/I532T/R536C/K540C/H784C, one chain of several) above, with S25R, F81Y, A187G, T532I, C536R, C540K, C784H counted along it

Regarding “TTTTAGCCGCTAGAGTCGACCTGC / GGAGACAAGCTTGTATGCCTGCAGGTCGACTCTAGCGGCTAAAA [24/44 nt template-primer duplex]”, the Kd (usually the free concentration of one partner at which half of the binding sites on the other are occupied at equilibrium, for simple one-to-one binding) in [1] worked out at 190 nM; in data set [2], 110 nM; in [3], 2.8 nM; in data set [4], 190 nM; in data set [5], 470 nM; in [6] it was 240 nM.
Consider TTTTAGCCGCTAGAGTCGACCTGC [24 nt primer], for which the Kd in data set [1] was determined as 440 nM; in data set [2], 310 nM; in [3] it was 52 nM; in data set [4], 740 nM; in data set [5] it was 2300 nM; in [6], 730 nM.

B1: 24/44 nt template-primer duplex (dsDNA)
DNA 1: TTTTAGCCGCTAGAGTCGACCTGC
DNA 2: GGAGACAAGCTTGTATGCCTGCAGGTCGACTCTAGCGGCTAAAA
As to B1, the Kd was 2200 nM in data set [7] (setting [20]); 16 µM in data set [8] (setting [20]); 990 nM in data set [9]; 28 nM in [10] (setting [20]); 320 nM in data set [11]; 25 nM in data set [12] (setting [20]). Also, the values for the Kd in data set [13] (setting [20]), in [14] and in data set [15] were 200 nM, 32 nM and 56 nM, respectively.

B2: 24 nt primer (ssDNA)
DNA: TTTTAGCCGCTAGAGTCGACCTGC
With B2, the Kd is 5.2 µM in [16]; 3700 nM in data set [7] (label: 5'-33P); 7.7 µM in data set [8] (label: 5'-33P); 2000 nM in data set [17]; 2700 nM in data set [18]; 350 nM in [10] (label: 5'-33P). In addition, the dissociation constant (Kd) in data set [12] (label: 5'-33P) came to 460 nM; in [13] (label: 5'-33P), 530 nM; with Taq DNA polymerase, 79 nM; in data set [19], 23 nM.

Values taken from patent publication US20110059490, “POLYMERASE COMPOSITIONS AND USES” (Fermentas UAB, published 2011).
